Source: paper doi:10.1101/2020.07.21.214338

How the values were obtained:
Test in all cases: native gel or EMSA
[1] = molecular target: 12x nucleosome array (human | Xenopus laevis)
[2] = molecular target: 147-bp nucleosome core particle (human | Xenopus laevis)
[3] = molecular target: 209-bp nucleosome core particle (human | Xenopus laevis)

CBP core-ZZ-TAZ2 (domain or fragment)
Kd [1]: 309 nM
Kd [2]: 1000 nM
Kd [3]: 540 nM
